# Measurements reported in article PMC6316659.
# B1: bovine serum fetuin (natural protein)
# chain: IPLDPVAGYKEPACDDPDTEQAALAAVDYINKHLPRGYKHTLNQIDSVKVWPRRPTGEVYDIEIDTLETTCHVLDPTPLANCSVRQQTQHAVEGDCDIHVLKQDGQFSVLFTKCDSSPDSAEDVRKLCPDCPLLAPLNDSRVVHAVEVALATFNAESNGSYLQLVEISRAQFVPLPVSVSVEFAVAATDCIAKEVVDPTKCNLLAEKQYGFCKGSVIQKALGGEDVRVTCTLFQTQPVIPQPQPDGAEAEAPSAVPDAAGPTPSAAGPPVASVVVGPSVVAVPLPLHRAHYDLRHTFSGVASVESSSGEAFHVGKTPIVGQPSIPGGPVRLCPGRIRYFKI
# Legend:
# [1] = target: native BPL2 (Bryopsis plumosa mannose-binding lectin 2) (Bryopsis plumosa)
# [2] = target: rD4BPL2 (recombinant Bryopsis plumosa lectin 2, tetrameric tandem repeat construct) (Bryopsis plumosa)
binder,measurement,setting,value
B1,minimum concentration of fetuin that inhibits the agglutination of a 4% horse erythrocyte suspension by 4 HU lectin,[1],195 µg/mL
same,minimum concentration of fetuin that inhibits the agglutination of a 4% horse erythrocyte suspension by 4 HU lectin,[2],12.2 µg/mL
